“And” between values parts separate entries of the source, which are not always exact repeats. Equal entries are not always repeated. One block for each binder: values may come before it.
Columns and labels:
Conditions in all cases: remark: other sources report otherwise
[1] = target: T1, Human USP25 (1-1055) (human), Q9UHP3; experiment: SEC-MALS; five-fold dilution series (1 mg/mL, 0.2 mg/mL, 0.04 mg/mL sample concentration)
T1 chain: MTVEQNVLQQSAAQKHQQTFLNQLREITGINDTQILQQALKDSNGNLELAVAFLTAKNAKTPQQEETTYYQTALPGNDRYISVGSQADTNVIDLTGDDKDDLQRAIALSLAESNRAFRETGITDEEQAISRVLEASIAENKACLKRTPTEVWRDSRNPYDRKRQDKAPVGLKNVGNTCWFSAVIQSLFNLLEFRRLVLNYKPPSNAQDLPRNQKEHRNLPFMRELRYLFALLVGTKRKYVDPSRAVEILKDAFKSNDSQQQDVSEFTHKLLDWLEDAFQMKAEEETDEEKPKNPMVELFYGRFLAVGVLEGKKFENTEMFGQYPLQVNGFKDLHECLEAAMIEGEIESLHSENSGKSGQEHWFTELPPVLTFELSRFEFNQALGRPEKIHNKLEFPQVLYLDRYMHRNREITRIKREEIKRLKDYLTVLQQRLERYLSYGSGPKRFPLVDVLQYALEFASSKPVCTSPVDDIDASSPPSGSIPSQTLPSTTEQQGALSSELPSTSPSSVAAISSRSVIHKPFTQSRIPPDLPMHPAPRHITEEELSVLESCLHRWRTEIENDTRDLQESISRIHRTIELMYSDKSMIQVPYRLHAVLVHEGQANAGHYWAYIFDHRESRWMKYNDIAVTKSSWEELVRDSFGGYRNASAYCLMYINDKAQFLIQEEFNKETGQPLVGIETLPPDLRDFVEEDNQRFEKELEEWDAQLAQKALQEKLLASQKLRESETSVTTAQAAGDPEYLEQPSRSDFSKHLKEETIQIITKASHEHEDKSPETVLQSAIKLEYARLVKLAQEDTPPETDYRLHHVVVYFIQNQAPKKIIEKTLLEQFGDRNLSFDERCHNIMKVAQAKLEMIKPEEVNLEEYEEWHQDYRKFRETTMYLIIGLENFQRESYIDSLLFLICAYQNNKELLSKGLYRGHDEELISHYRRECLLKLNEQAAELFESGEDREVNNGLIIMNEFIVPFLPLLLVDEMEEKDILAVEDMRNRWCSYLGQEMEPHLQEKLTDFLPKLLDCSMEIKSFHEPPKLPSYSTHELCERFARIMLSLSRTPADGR

[2] = target: T1, Human USP25 (1-1055) (human), Q9UHP3; experiment: not stated; oligomeric states of purified orthologs and of full-length proteins, Figures S7A, S7B and S3J
[3] = target: T1, Human USP25 (1-1055) (human), Q9UHP3; experiment: SEC + native gel or EMSA; recombinant full-length USP25 on HiLoad 16/600 Superdex 200 pg in buffer E immediately before native PAGE, Ponceau staining
[4] = target: T2, endogenous USP25 (human (endogenous in HEK293)), Q9UHP3; experiment: native gel or EMSA; native PAGE of lysate of untreated HEK293 cells, immunoblotting for the endogenous protein; recombinant USP25 tetramer and dimer fractions as size standard
T2 chain: T1 chain

stoichiometry N [1]: 4 and 2 | stoichiometry N [2]: 2 and 4 | stoichiometry N [3]: 4 and 2
B1: Human USP25 (1-1055), Q9UHP3 1-1055 (enzyme)
chain: T1 chain

stoichiometry N [4]: 2 and 4
B2: endogenous USP25, Q9UHP3 1-1055 (enzyme)
chain: T1 chain

Reference: PMC6509359
